Reference: IntAct's records for PubMed 21139566

B1: Structural maintenance of chromosomes protein 3 (Saccharomyces cerevisiae), P47037 (parent)
chain: MYIKRVIIKGFKTYRNETIIDNFSPHQNVIIGSNGSGKSNFFAAIRFVLSDDYSNLKREERQGLIHQGSGGSVMSASVEIVFHDPDHSMILPSGVLSRGDDEVTIRRTVGLKKDDYQLNDRNVTKGDIVRMLETAGFSMNNPYNIVPQGKIVALTNAKDKERLQLLEDVVGAKSFEVKLKASLKKMEETEQKKIQINKEMGELNSKLSEMEQERKELEKYNELERNRKIYQFTLYDRELNEVINQMERLDGDYNNTVYSSEQYIQELDKREDMIDQVSKKLSSIEASLKIKNATDLQQAKLRESEISQKLTNVNVKIKDVQQQIESNEEQRNLDSATLKEIKSIIEQRKQKLSKILPRYQELTKEEAMYKLQLASLQQKQRDLILKKGEYARFKSKDERDTWIHSEIEELKSSIQNLNELESQLQMDRTSLRKQYSAIDEEIEELIDSINGPDTKGQLEDFDSELIHLKQKLSESLDTRKELWRKEQKLQTVLETLLSDVNQNQRNVNETMSRSLANGIINVKEITEKLKISPESVFGTLGELIKVNDKYKTCAEVIGGNSLFHIVVDTEETATLIMNELYRMKGGRVTFIPLNRLSLDSDVKFPSNTTTQIQFTPLIKKIKYEPRFEKAVKHVFGKTIVVKDLGQGLKLAKKHKLNAITLDGDRADKRGVLTGGYLDQHKRTRLESLKNLNESRSQHKKILEELDFVRNELNDIDTKIDQVNGNIRKVSNDRESVLTNIEVYRTSLNTKKNEKLILEESLNAIILKLEKLNTNRTFAQEKLNTFENDLLQEFDSELSKEEKERLESLTKEISAAHNKLNITSDALEGITTTIDSLNAELESKLIPQENDLESKMSEVGDAFIFGLQDELKELQLEKESVEKQHENAVLELGTVQREIESLIAEETNNKKLLEKANNQQRLLLKKLDNFQKSVEKTMIKKTTLVTRREELQQRIREIGLLPEDALVNDFSDITSDQLLQRLNDMNTEISGLKNVNKRAFENFKKFNERRKDLAERASELDESKDSIQDLIVKLKQQKVNAVDSTFQKVSENFEAVFERLVPRGTAKLIIHRKNDNANDHDESIDVDMDAESNESQNGKDSEIMYTGVSISVSFNSKQNEQLHVEQLSGGQKTVCAIALILAIQMVDPASFYLFDEIDAALDKQYRTAVATLLKELSKNAQFICTTFRTDMLQVADKFFRVKYENKISTVIEVNREEAIGFIRGSNKFAEV
partner: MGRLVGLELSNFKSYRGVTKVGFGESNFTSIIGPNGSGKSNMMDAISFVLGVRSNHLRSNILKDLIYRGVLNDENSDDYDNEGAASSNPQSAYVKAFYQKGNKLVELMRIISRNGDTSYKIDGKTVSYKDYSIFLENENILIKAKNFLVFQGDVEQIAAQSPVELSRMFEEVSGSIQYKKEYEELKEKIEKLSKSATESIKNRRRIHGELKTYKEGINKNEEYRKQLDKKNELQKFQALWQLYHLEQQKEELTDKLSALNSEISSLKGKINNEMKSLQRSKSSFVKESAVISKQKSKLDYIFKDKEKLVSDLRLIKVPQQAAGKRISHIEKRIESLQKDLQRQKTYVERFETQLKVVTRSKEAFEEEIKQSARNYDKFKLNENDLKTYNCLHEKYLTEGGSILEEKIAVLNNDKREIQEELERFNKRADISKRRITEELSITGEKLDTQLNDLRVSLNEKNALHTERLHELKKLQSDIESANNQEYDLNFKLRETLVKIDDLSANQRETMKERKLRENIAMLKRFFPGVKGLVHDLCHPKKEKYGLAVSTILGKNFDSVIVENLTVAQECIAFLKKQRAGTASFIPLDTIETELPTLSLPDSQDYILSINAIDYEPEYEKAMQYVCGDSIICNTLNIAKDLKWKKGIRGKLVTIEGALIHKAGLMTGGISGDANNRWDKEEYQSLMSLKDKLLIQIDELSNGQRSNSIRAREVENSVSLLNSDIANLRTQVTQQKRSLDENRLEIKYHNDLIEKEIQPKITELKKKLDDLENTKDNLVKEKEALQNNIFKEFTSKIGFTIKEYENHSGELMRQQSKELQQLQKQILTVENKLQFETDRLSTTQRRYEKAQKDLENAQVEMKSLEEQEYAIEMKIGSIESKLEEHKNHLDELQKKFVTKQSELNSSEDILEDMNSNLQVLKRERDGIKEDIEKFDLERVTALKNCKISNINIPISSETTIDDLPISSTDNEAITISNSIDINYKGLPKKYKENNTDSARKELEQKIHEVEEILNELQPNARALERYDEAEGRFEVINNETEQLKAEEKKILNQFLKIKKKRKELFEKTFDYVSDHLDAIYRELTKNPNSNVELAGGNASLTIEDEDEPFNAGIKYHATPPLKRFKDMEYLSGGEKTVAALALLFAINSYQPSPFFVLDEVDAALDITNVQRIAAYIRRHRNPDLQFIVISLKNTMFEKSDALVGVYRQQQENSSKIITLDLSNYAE
B2: Structural maintenance of chromosomes protein 1 (Saccharomyces cerevisiae), P32908 (parent)
chain: B1 partner
partner: B1 chain

Variants of: B1
Details: with smc1_yeast SMC1, P32908

Variant	effect of a mutation on the interaction
R669A	decreasing interaction
K668A	decreasing interaction
R665A	decreasing interaction

Variants of: B2
Details: with smc3_yeast SMC3, P47037

Variant	effect of a mutation on the interaction
M665R	disrupting interaction

Variants of: B2
Details: with smc3_yeast SMC3, P47037
Remark: another data set of the same source

Variant	effect of a mutation on the interaction
K554D	decreasing interaction
K661D	decreasing interaction
